Source: patent US20240343803A1 (SHANDONG SIMCERE BIOPHARMACEUTICAL, published 2024)

T1: human PVRIG on FlpinCHO-PVRIG cells (human, UniProt Q6DKI7 41-326)
T1 construct: whole, on cells; also called FlpinCHO-hPVRIG; FlpinCHO-human PVRIG
T1 sequence (looked up): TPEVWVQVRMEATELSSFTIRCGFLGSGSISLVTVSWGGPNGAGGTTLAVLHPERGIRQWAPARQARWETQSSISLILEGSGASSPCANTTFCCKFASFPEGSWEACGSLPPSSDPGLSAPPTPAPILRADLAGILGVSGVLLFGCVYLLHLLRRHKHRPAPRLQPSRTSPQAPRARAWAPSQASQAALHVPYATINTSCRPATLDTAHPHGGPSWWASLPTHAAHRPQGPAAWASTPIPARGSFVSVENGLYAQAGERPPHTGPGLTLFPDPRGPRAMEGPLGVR

T2: full-length human TIGIT on CHO-K1 cells (CHO-K1 human TIGIT) (human, UniProt Q495A1 22-244)
T2 construct: NCBI XP_024309156.1; entry includes the signal peptide; also called high expression strain 1D2; medium expression strain 2D10
T2 sequence: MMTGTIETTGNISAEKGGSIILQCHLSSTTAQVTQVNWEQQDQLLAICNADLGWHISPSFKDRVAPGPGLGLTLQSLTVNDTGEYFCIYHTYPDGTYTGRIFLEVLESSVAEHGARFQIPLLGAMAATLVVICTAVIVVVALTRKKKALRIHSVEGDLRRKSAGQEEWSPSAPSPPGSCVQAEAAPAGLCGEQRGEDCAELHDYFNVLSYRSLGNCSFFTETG


Key:
[1] = target: T1, human PVRIG on FlpinCHO-PVRIG cells; assay: FACS, FlpinCHO-PVRIG cells
Experimental: After discarding the cell culture medium, the cells were rinsed with PBS and digested for 8-10 minutes by adding 1 mL Versene (Gibico, 15040-066). The Ham's F12 (Gibico, 21127-022) complete medium containing 10% FBS was then added to terminate the digestion and acquire cell suspension. After counting with a cell counter (Beckman Coulter, Vi-CELL), an appropriate amount of cell suspension was centrifuged at 350×g to remove the supernatant, washed twice with PBS, stained with Zombie violet (Biolegend, 423114) and incubated at room temperature for 20 minutes. After incubation, the cells were added with staining buffer (2% FBS+PBS) to stop staining, centrifuged at 350×g to remove the supernatant, washed twice and resuspended with staining buffer to a density of 2×10⁶ cells/mL. The cells were plated into a 96-well plate (50 μL of cell suspension per well) for further use. The antibodies were diluted from the highest concentration of 46 nM (two-fold concentration) with staining buffer by 3.3-fold serial dilution. The diluted antibodies were added to the well containing 50 μL of cell suspension. The plate was placed on a microplate shaker at 400 rpm for 1 minute to fully mix the antibodies and cells, and then incubated at 4° C. for 30 minutes. After the incubation, the cells were washed twice with staining buffer (200 μL per well) and centrifuged at 350×g for 5 minutes to discard the supernatant. The PE goat anti-human IgG Fc antibody (ebioscience, 12-4998-82) was diluted 250 times with staining buffer, added into the washed wells (100 μL per well), mixed well, and stained at 4° C. for 30 minutes. After staining, the cells were washed twice with staining buffer, finally resuspended with 200 μL staining buffer and analyzed by flow cytometry (BD, Canto II). The stronger the signal, the stronger the ability of the antibodies binds to PVRIG. An antibody binding curve was drawn with concentration of antibodies as the abscissa and the corresponding Mean Fluorescence Intensity (MFI) as the ordinate. The AUC value of the curve was calculated by using a Four Parameter Logistic Fit (GraphPadPrism9).

[2] = target: T2, full-length human TIGIT on CHO-K1 cells …; assay: competition FACS; blocked: Bio-CD155-His binding to CHO-K1 human TIGIT cells
Experimental: The collected cells were washed once with PBS (Hyclone, SH30256), resuspended to 2×10⁵/40 μL with 1% BSA-PBS. The antibodies were diluted to 210 nM with 1% BSA-PBS (diluted by 3-fold serial dilution for 12 concentration points). […] The 40 μL cells were then mixed with 40 μL diluted antibodies and 40 μL diluted Bio-CD155-His, and then incubated at 4° C. for 60 minutes. The cells were washed twice with PBS, resuspended with APC labeled streptavidin (dilution ratio 1:1700, Biolegend, 405243), 100 μL/well, and incubated at 4° C. for 40 minutes. The cell samples were washed twice with PBS, resuspended with 1% BSA-PBS (100 μL/well) and then analyzed by flow cytometry (BD, Canto II).

[3] = target: T2, full-length human TIGIT on CHO-K1 cells …; assay: FACS, CHO-K1 human TIGIT medium expression strain
Experimental: (§1) The collected cells were washed once with PBS (Hyclone, Cat NO. SH30256), resuspended to 2×10⁵/50 μL with 1% BSA-PBS. The antibodies were diluted to 80 nM with 1% BSA-PBS (diluted by 3-fold serial dilution for 12 concentration points). The 50 μL cells were then mixed with 50 μL diluted antibodies, and then incubated at 4° C. for 60 minutes. […] After washing twice with PBS, the cell samples were resuspended with 1% BSA-PBS, 100 μL/well and then analyzed by flow cytometry (BD, Canto II).

[4] = target: T2, full-length human TIGIT on CHO-K1 cells …; assay: FACS, high expression strain
Experimental: as §1, with “CAT #SH30256),” for “Cat NO. SH30256),”, “II). […] [0298] (c) The effect of anti-TIGIT chimeric antibodies blocking the interaction between Bio-CD155-His and CHO-K1 human TIGIT high expression cell strains detected by FACS” for “II).”

[5] = target: T2, full-length human TIGIT on CHO-K1 cells …; assay: FACS, medium expression strain
Experimental: as §1, with “CAT #SH30256),” for “Cat NO. SH30256),”, “II). […] [0298] (c) The effect of anti-TIGIT chimeric antibodies blocking the interaction between Bio-CD155-His and CHO-K1 human TIGIT high expression cell strains detected by FACS” for “II).”

EC50 (read off the curve) [1] | IC50 (read off the curve) [2] | EC50 (read off the curve) [3] | EC50 [4] | EC50 [5] | Binder
~0.4 nM |  |  |  |  | PVRIG-A105 (VHH, tested as VHH-hinge-CH2-CH3 (human IgG1-Fc); not shown: human IgG1 hinge-CH2-CH3) VHH: EVQLVESGGGLVQAGGSLRLSCAASGRTFDRHTMTWFRQAPGKEREFVATASRIPGDTYYSHSVKGRFTISRDNAKNTVYLQLNNLKPEDTAVYYCAATSAYCSEVDCYEKGSWYDNWGQGIQVTVSS
 | ~0.3 nM | ~0.4 nM | 0.673 nM | 0.616 nM | RG6058-hIgG1 (antibody, V domains shown, human IgG1 format by its name; also called Roche RG6058; control antibody RG6058) VH: EVQLQQSGPGLVKPSQTLSLTCAISGDSVSSNSAAWNWIRQSPSRGLEWLGKTYYRFKWYSDYAVSVKGRITINPDTSKNQFSLQLNSVTPEDTAVFYCTRESTTYDLLAGPFDYWGQGTLVTVSS VL: not shown
